{"source": "paper PMC3659266", "about": "(Structure (London, England : 1993), 2013)", "binders": {"B1": {"name": "Middle domain of human eIF4GI (MIF4G, residues 732-1003) (domain or fragment, UniProt Q04637 732-1003, looked up)", "chain": "KAWKPSSKRTAADKDRGEEDADGSKTQDLFRRVRSILNKLTPQMFQQLMKQVTQLAIDTEERLKGVIDLIFEKAISEPNFSVAYANMCRCLMALKVPTTEKPTVTVNFRKLLLNRCQKEFEKDKDDDEVFEKKQKEMDEAATAEERGRLKEELEEARDIARRRSLGNIKFIGELFKLKMLTEAIMHDCVVKLLKNHDEESLECLCRLLTTIGKDLDFEKAKPRMDQYFNQMEKIIKEKKTSSRIRFMLQDVLDLRGSNWVPRRGDQGPKTID"}}, "molecular_target": "Human full-length eIF4AI (human, UniProt P60842 1-406)", "sequence (P60842 whole entry)": "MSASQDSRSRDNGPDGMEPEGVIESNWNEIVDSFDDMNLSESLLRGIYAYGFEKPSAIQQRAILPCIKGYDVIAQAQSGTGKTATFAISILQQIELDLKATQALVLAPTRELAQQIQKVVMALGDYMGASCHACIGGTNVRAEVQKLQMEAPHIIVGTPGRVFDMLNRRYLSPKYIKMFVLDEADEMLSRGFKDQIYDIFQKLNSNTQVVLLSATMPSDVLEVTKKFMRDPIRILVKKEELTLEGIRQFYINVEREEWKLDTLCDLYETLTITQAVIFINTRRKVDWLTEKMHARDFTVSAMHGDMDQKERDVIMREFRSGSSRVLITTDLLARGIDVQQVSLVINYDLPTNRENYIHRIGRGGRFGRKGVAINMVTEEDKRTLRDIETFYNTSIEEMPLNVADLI", "assay": "ITC", "data": [{"binder": "B1", "values": [{"measurement": "Kd", "result": 136, "unit": "nM"}]}]}
